Laboratory results: patent US20150104466A1, “CYTOMEGALOVIRUS DISINTEGRIN-LIKE PEPTIDES” (priority 2013, published 2015)

Legend:
[1] = tested on: NHDF cells; assay: Cytoskeletal rearrangement in NHDF cells (actin staining with phalloidin); assay type: cell-based, human; details: compared to buffer alone
Text: gBDLD Triggers Cytoskeletal Rearrangements: β1 integrins are known inducers of broad signal transduction events. […] To test the role of gBDLD in mediating signaling events, we stimulated NHDF cells with buffer alone, gBDLD, or a known cytoskeletal reorganizer (EGF), followed by actin staining with phalloidin.

[2] = target: T1, β1 integrin (Homo sapiens, UniProt P05556); assay: Integrin co-immunoprecipitation assay, Western blot for β1 integrin; assay type: binding; details: human fibroblast lysates, nickel beads
T1 construct: endogenous in cells; host or cells: Normal Human Dermal Fibroblasts (NHDF), 1% TX-100 lysate
T1 sequence (P05556 21-798): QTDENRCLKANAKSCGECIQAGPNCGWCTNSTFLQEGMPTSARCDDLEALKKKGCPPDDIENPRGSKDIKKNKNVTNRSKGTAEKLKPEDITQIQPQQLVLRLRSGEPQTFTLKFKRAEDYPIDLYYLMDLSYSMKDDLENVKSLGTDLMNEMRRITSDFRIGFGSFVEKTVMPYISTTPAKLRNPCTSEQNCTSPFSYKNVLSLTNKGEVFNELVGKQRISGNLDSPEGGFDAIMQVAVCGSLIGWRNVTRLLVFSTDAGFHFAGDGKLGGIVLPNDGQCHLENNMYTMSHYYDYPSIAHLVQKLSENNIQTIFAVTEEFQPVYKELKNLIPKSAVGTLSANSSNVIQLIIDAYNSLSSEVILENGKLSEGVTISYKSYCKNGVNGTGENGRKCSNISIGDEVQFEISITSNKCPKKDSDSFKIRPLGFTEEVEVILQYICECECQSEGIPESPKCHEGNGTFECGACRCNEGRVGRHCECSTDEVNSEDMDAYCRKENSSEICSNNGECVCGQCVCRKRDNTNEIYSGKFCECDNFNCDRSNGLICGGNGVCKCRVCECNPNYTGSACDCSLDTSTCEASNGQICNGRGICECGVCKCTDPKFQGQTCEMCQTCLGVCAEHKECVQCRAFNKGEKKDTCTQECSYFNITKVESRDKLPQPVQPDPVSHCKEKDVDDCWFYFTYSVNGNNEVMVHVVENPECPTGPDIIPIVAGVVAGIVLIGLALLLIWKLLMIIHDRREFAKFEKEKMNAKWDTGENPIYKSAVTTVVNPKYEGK
Procedure: (§1) A T-175 flask of NHDFs was grown to complete confluence, washed three times in MES buffer and lysed in 1 mL MES buffer+1% TX-100 (a detergent). Lysate was spun at 10,000 g for 10 minutes to remove cell debris. Cell lysate (350 μL) was then incubated with 20 μg gBDLD for 4 hours at 4° C. The lysate+gBDLD mixture was then incubated with 50 μL Ni beads overnight at 4° C. Nickel beads were then washed three times and protein eluted by boiling and then adding reducing SDS-PAGE buffer. Proteins were separated by SDS-PAGE and Western blotted for β1 integrin (Chemicon-1965) or β3 (Chemicon) as previously described.^48
(§2) To identify the cellular receptor for gBDLD we performed co-immunoprecipitation studies. Briefly, gBDLD was incubated with human fibroblast lysates and pulled down with nickel-conjugated agarose beads.
(§3) Because gBDLD contains a known β1 integrin binding motif, gBDLD bound to its cellular receptor was isolated by SDS-PAGE and then Western blotted for either β1 or β3 integrin. The resulting gels are shown in FIG. 10 (β1) and FIG. 11 (β3).

[3] = Solubility of gBDLD in MES buffer; assay type: physicochemical; details: 55 mM MES, pH 5.5, 300 mM NaCl
Procedure: DNA sequence corresponding to amino acids 57-146 of HCMV AD169 glycoprotein B disintegrin-like domain (“gBDLD”) was cloned into the bacterial expression vector pET-28a containing an N-terminal His-Tag with thrombin cleavage site and kanamycin resistance. (Commercially available from Novagen, San Diego, Calif.) gBDLD production was induced by the addition of 1 mM isopropyl-βD-thiogalactopyranoside (IPTG). E. coli Tuner strain containing pET-28a:gBDLD was grown at 37° C. in Luria-Bertani medium containing kanamycin (50 μg/mL) to an optical density at 600 nm of approximately 0.6. IPTG (1 mM) was added and the plates were incubated continuously for 4 h at 37° C. Cells were harvested by centrifugation at 4000 r/min for 10 min and pellets were resuspended in 1% Triton X-100/Ni-NTA buffer (300 mM NaCl/50 mM Tris-HCL pH 7.9) and lysed by 3×60 s bursts of sonication. The lysate was centrifuged at 15,000 r/min for 15 minutes at 4° C. The 8M urea/Ni-NTA fraction was then poured into a chromatography column containing nickel-nitriloacetic acid agarose (Ni-NTA) beads at 4° C. and allowed to flow through. […] Fractions containing protein were determined by measuring the absorbance of each fraction at 214 nm. Fractions that corresponded to absorption peaks were analyzed by sodium dodecyl sulfate polyacrylamide electrophoresis (SDS-PAGE) to determine the size of the protein. […]

[4] = tested on: diI-labeled HCMV; assay type: cell-based, Human cytomegalovirus; details: gBDLD or BSA 320 μg/mL, soluble heparin 50 μg/mL; 24 hours post-infection
[5] = target: Normal human dermal fibroblasts; assay: Protein binding assay: gBDLD binding to human fibroblasts (His-tag ELISA)
Procedure: Normal human dermal fibroblasts were chilled to 4° C., washed three times with cold MES buffer and blocked with 1 mg/mL bovine serum albumin (BSA) for 30 minutes at 4° C. Unbound BSA was removed with cold MES washes (×4). The indicated amounts of gBDLD were added to each well for 90 minutes at 4° C. Cells were then washed three times with cold MES, twice with cold (phosphate-buffered saline (PBS) and fixed with 3% paraformaldehyde. An ELISA was then performed probing with anti-His rabbit polyclonal antibody (Santa Cruz Biotechnology, Santa Cruz, Calif.) and anti-rabbit HRP (Pierce). Absorbance was measured at 405 nm.
FIG. 7 is a graph depicting the results of a gBDLD binding assay (performed as described previously). Here, binding was measured by absorbance at 405 nm. […] To generate the data, human fibroblasts were incubated with gBDLD for the indicated times at 4° C. Cells were then washed, fixed and an ELISA was performed probing for the gBDLD […] his-tag. […]
FIG. 8 is a graph depicting gBDLD binding to human fibroblasts. As is readily apparent from FIG. 8, this binding is dose-dependent and saturable. […] After three IVIES washes and two PBS washes, cells were fixed in 3% paraformaldehyde and a His-tag ELISA was performed to quantitate gBDLD bound to cells.

[6] = target: T2, β3 integrin (Homo sapiens, UniProt P05106); assay: Integrin co-immunoprecipitation assay, Western blot for β3 integrin; assay type: binding; details: human fibroblast lysates, nickel beads
T2 construct: endogenous in cells; host or cells: Normal Human Dermal Fibroblasts (NHDF), 1% TX-100 lysate
T2 sequence (P05106 27-788): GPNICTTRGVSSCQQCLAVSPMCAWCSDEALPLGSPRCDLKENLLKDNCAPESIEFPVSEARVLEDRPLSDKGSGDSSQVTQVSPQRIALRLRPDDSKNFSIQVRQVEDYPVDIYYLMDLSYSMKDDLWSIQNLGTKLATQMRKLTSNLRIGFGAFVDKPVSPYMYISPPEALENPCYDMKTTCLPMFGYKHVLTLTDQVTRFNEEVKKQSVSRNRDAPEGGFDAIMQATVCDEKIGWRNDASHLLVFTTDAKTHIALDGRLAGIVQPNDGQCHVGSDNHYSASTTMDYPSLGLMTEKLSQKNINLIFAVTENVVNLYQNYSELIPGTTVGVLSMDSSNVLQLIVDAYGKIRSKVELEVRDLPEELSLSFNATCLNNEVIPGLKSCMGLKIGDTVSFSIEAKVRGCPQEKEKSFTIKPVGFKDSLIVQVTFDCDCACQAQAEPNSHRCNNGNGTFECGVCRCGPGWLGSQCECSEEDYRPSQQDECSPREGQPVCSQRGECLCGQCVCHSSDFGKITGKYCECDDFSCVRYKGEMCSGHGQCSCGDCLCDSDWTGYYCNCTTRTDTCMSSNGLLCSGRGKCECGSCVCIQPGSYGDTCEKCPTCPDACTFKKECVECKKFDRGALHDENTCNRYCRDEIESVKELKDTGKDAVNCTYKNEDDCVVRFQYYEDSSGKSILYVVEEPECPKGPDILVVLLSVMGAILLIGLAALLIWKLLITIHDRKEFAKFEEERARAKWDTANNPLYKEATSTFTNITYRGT
T2 sequence (P06756 31-889 partner limits assumed): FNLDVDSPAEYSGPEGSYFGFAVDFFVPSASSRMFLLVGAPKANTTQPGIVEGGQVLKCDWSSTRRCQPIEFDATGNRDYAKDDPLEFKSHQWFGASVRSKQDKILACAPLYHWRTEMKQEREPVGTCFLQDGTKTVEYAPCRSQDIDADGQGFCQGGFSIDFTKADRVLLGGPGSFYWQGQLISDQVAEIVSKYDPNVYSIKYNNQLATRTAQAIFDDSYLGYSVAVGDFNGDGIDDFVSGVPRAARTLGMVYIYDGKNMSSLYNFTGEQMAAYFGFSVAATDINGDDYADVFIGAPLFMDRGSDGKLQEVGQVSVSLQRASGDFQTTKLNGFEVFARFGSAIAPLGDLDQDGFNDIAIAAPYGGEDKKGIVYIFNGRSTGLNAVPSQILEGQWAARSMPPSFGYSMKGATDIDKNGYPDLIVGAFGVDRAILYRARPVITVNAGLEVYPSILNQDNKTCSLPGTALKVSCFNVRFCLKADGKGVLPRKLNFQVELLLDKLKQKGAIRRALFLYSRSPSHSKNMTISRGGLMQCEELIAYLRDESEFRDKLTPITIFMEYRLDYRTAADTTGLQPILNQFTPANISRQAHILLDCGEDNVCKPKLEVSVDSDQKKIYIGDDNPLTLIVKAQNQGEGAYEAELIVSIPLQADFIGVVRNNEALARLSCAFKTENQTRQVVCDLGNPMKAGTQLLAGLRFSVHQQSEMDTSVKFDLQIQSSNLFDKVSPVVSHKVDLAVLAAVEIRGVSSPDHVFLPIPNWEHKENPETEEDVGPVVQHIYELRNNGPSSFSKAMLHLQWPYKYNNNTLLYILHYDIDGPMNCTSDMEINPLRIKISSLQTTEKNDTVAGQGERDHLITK
T2 sequence (P06756 891-1048 partner limits assumed): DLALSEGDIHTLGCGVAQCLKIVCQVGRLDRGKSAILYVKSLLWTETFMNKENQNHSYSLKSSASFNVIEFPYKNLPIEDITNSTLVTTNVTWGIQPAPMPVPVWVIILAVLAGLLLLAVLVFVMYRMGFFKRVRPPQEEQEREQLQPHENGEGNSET
Procedure: as §1, §2, §3

B1: gBDLD: amino acids 57-146 of HCMV AD169 glycoprotein B disintegrin-like domain, His-tagged, expressed in E. coli (protein)
chain: VTSSEAVSHRANETIYNTTLKYGDVVGVNTTKYPYRVCSMAQGTDLIRFERNIICTSMKPINEDLDEGIMVVYKRNIVAHTFKVRVYQKV
modifications: left off: small tags and cut ends
notes: amino acids 57-146 of HCMV AD169 glycoprotein B disintegrin-like domain, His-tagged, expressed in E. coli
reorganization of the cytoskeleton [1]: triggered a dramatic reorganization of the cytoskeleton
interaction with β1 integrin (pull down) [2]: interacts with β1 integrins
Solubility [3]: approximately 1 mg/mL
block of HCMV fusion and gene expression [4]: complete block of HCMV fusion and gene expression
kinetics of gBDLD binding to human fibroblasts ([5]; 4° C., absorbance at 405 nm): rapid kinetics
concentration at which binding to fibroblast monolayers reached saturation ([5]; 60 minutes, after BSA blocking): 12.5 µg/mL
interaction with β3 integrin (pull down) [6]: does not interact with β3 integrins
